The record followed here is PMC5715787, “Structural basis for antibody recognition of the NANP repeats in Plasmodium falciparum circumsporozoite protein” (Proceedings of the National Academy of Sciences of the …, 2017).

Holding throughout (assay): ITC; MicroCal Auto-iTC200; triplicate (or duplicate) experiments; details in SI
What all share (settings): both partners purified
In general terms: In ITC the heat of successive injections is recorded.

Assay [1] has as its target T1, (NPNA)3 peptide, Ac-[residues removed]-NH2 (Plasmodium falciparum CSP repeat …).
T1 construct: also called 12-mer

The target of a further assay is (NPNA)2 peptide (Plasmodium falciparum CSP repeat …).
Assay [2] addresses T2, Ac-NPNVDPNANPNV-NH2 peptide (Plasmodium falciparum CSP repeat …).
T2 chain: Ac-NPNVDPNANPNV-NH2

Assay [3] deals with T3, Ac-DPNANPNVDPNA-NH2 peptide (Plasmodium falciparum CSP repeat …).
T3 chain: Ac-DPNANPNVDPNA-NH2

B1: Fab311 (Fab, V domains shown)
VH: QVQLVESGGGVVPPGRSLRLSCATSGFTFSNYGMHWVRQAPGKGLEWVAIIWYDGSRNFYAASVEGRFTISRDNSKNTLYLQMNSLRVEDTAVYYCARAAYYDTSGYGDYWGQGTLVTVSS
VL: QSVLTQPPSVSGAPGQTVTISCTGGSSNIGAGYDVHWYQQLPGTAPKLLIYGNINRPSGVPDRFSGSKSGTSASLAITGLQAEDEADYYCQSYDRRLSGSWVFGGGTKLTVL
As a reminder, the Kd is the concentration at which binding is half-saturated. The low end stands for higher affinity, the high end for lower affinity. One may read the stoichiometry N as a count of units in the complex or per binding partner. Turning to B1, the Kd came out at 305 nM in assay [1], 296 nM in the assay with (NPNA)2 peptide, 1790 nM in assay [2] and 1370 nM in assay [3]. Also, the dH in assay [1] is -29.8 kcal/mol; with (NPNA)2 peptide, -16.4 kcal/mol; in assay [2] it was -18.7 kcal/mol; in assay [3], -20.2 kcal/mol. Also, the “stoichiometry N” value in assay [1] was found to be 0.74; with (NPNA)2 peptide, 1.5; in assay [2], 1.24; in assay [3] it was 1.2.

B2: Fab317 (Fab, V domains shown)
VH: QMQLVESGGGVVQPGRSLRLSCTASGFTFSTYAMHWVRQSPGQGLQWVAVISYHSTNKYYEDSVRGRFTISRDNSKNTLYLQMNSLRAEDTAVYYCARDGYSSSFFDFWGQGTLVTVSS
VL: DIQMTQSPSTLSASVGDRVAITCRASQSISRWLAWYQQQPGKAPKLLMSGASVLESGVPSRFSGSGSGTEFTLTISSLQPDDFATYYCQHYNSYFVTFGQGTKVEIK
Turning to B2, in assay [1], the Kd amounted to 78 nM, the dH was -15.7 kcal/mol and the “stoichiometry N” value came out at 1.27. For the same molecule, in the assay with (NPNA)2 peptide, the Kd came out at 173 nM, the dH was -12.1 kcal/mol and the “stoichiometry N” value is 1.41. Further, in assay [3], the Kd was determined as 448 nM, the dH is -9.39 kcal/mol and the “stoichiometry N” value came out at 1.64.
